{
  "source": "paper PMC10698503",
  "about": "(Molecular Systems Biology, 2023)",
  "key": {"His-PP1γ [1]": {"target": "T1, His-PP1γ (UniProt P36873 1-323)", "T1 construct": "PP1γ, catalytic subunit of protein phosphatase 1, gamma isoform; D1:p17 gives a molecular weight of 36965 Da for PP1; also called PP1g", "experiment": "ITC; peptide (approximately 450 µM, syringe) titrated into PP1γ (~35 µM, cell); 25°C; 50 mM sodium phosphate, 150 mM NaCl, 0.5 mM TCEP, pH 7.5; single-site model", "details": "both partners purified", "T1 sequence (P36873 whole entry, canonical isoform)": "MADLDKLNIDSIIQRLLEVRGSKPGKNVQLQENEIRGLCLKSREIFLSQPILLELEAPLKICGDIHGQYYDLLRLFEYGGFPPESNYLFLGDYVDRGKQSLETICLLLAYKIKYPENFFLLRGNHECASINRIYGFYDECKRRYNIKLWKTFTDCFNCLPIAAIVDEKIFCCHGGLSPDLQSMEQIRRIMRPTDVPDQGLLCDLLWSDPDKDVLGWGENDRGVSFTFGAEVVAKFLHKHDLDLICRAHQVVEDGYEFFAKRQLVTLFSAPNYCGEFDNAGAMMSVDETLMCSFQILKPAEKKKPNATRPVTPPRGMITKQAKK"}, "His-PP1γ [2]": {"target": "His-PP1γ (UniProt P36873 1-323)", "experiment": "ITC; peptide (approximately 450 µM, syringe) titrated into PP1γ (~35 µM, cell); 25°C; 50 mM sodium phosphate, 150 mM NaCl, 0.5 mM TCEP, pH 7.5; single-site model", "details": "both partners purified"}},
  "note": "Non-standard residues stand in square brackets, D forms with d. No end group written: not given here. pS = N[C@@H](COP(=O)(O)O)C(=O)O",
  "data": [
    {"binder": "AKNSRVTFSEDDEIW", "note": "[Nipp1 197-209 peptide AKNSRVTFSEDDEIW]", "values": [
      {"measurement": "Kd", "setting": "His-PP1γ [1]", "value": "190 ± 10", "unit": "nM"}
    ]},
    {"binder": "PRRSPRISFFLEKENEPPGREW (Sororin (CDCA5) 76-96 by the label; also called CDCA5; source: synthetic peptide, bought: Peptide 2.0 Inc)", "note": "[Sororin 76-96 peptide PRRSPRISFFLEKENEPPGREW]", "values": [
      {"measurement": "Kd", "setting": "His-PP1γ [1]", "value": "2530 ± 110", "unit": "nM"}
    ]},
    {"binder": "KLNSKRVSFKLPKDQW (KNL1 (CASC5) 1441-1455 by the label; also called CASC5; source: synthetic peptide, bought: Peptide 2.0 Inc)", "note": "[KNL1 1441-1455 peptide KLNSKRVSFKLPKDQW]", "values": [
      {"measurement": "Kd", "setting": "His-PP1γ [1]", "value": "120 ± 10", "unit": "nM"}
    ]},
    {"binder": "RRSPRI[pS]FFLEKENEW", "note": "[Sororin 73-91 pS83 peptide RRSPRI(pS)FFLEKENEW]", "values": [
      {"measurement": "Kd", "setting": "His-PP1γ [2]", "value": "1360 ± 10", "unit": "nM"}
    ]}
  ]
}
